Measured values reported in patent publication US11103562B2, “Composition comprising alkaline phosphatase for use in the treatment of arthritides” (AMRIF BV, priority 2017, dated 2021).
Entries after “also recorded” stand apart in the source; their conditions may differ.

Key:
[1] = tested on: ED1+ and ED2+ synovial macrophages; assay: Synovial macrophage infiltration (ED1/ED2 immunohistochemistry) in knees of rats with mBSA antigen-induced arthritis; assay type: in vivo, rat
Description: (§1) Experiments were performed using a rat model for RA as published by Chandruputla et al. (BioMed Int, 2015) to show the effects of recombinant human alkaline phosphatase (hRESCAP) on RA. hRESCAP was compared with MTX used as a positive control. The antigen-induced rat model uses two subcutaneous immunizations with a mixture of methylated bovine serum albumin (mBSA), CFA (complete Freund's adjuvant antigen) and CBP (custom Bordetella pertussis antigen) and intra-articular injections of mBSA on one side knee and saline (negative control) on the counter knee. Immunohistochemical (IHC) analysis specifically focussed on infiltration with macrophages and knee swelling is followed over time after therapeutic treatment with MTX, or hRESCAP.
(§2) In the rat model, RA is induced in the right knee (RA knee), the contralateral left knee serves as a internal control (control knee). The model allows various options for therapeutic interventions, either before intra-articular injections or during boosts injections with mBSA. Two hours prior to AP administration, rats received a dose of levamisole (50 mg/kg, s.c.). For comparison, arthritic rats received treatment with methotrexate (1 mg/kg, i.p.).
At the end of the experiment, rats were sacrificed and knees were decalcified and processed for IHC analysis of synovial macrophage infiltration, including 2 rat macrophage antibodies; ED1 (homolog of human CD68) and ED2 (homolog of human CD163, a proposed marker for human M2 anti-inflammatory macrophages). IHC analysis of ED1 and ED2 macrophages was performed in multiple quadrants of synovial tissue, as described by Chandruputla et al (BioMed Int, 2015). Macrophage counting included synovial lining layer (SL 1-10) and synovial sublining layers (SL 1-20).
(§3) All rats (except healthy) were immunized and arthritis was induced via 1× or 4× intra-articular (i.a) mBSA injections, 4 or 5 days apart in the arthritic (right) knee, the contralateral (left, non-arthritic) knee serving as control knee. For therapeutic interventions, AP (human recombinant placenta AP, TNO, Zeist, The Netherlands) was administered subcutaneously (s.c.) at a dose of 700 U/kg (≈200 μg), MTX (VU University Medical Centers' Pharmacy) was administered intra-peritoneal (i.p.) at two dosages: 0.3 mg/kg (low dose) and 1.0 mg/kg (high dose). The rats were divided in 8 groups, based on different treatments and treatment schedules. In a prophylactic setting, two rats received AP twice prior to intra-articular (i.a.) arthritis induction and four rats received AP twice prior to intra-articular and 4× PBS in between i.a. injections. In the treatment groups, arthritic rats were administered AP twice or 4× after arthritis induction, either as standalone therapy or in combination with low or high dose MTX. Control rats received 500 μL of PBS (i.p.). […] At the end of study, all rats were sacrificed and tissues were excised for further processing and various analyses.
The arthritic and contralateral knees from all rats were dissected in toto and fixed for 7 days at 4° C. in 10% freshly made paraformaldehyde in PBS with 2% sucrose (pH=7.3) prior to decalcification in osteosoft (101728, Merck, Germany) for ˜2.5 weeks at room temperature. Thereafter, knees were embedded in paraffin. Sections of 5 μm were cut through the centre of the joint in longitudinal direction and stained with haematoxylin and eosin (HE) to assess the degree of inflammation in synovial tissue. Liver and spleen sections from all rats were dissected and fixed in 4% paraformaldehyde for 24 h before embedding in paraffin. Sections of 5 μm were cut and stained initially with HE and then for macrophages Staining for macrophages with ED1 (homologous to human CD68), and ED2 (homologous to human CD163, a marker for M2 anti-inflammatory macrophages), or isotype control antibody was performed. Images were captured using a Leica 4000B microscope and Leica digital camera DC500 (Microsystems B. V. Rijswijk, The Netherlands). […]

[2] = rats; cited from earlier work
arthritic rats = assay: Knee swelling in rats with mBSA antigen-induced arthritis; assay type: in vivo, rat
Description: as §1, §2, §3

[3] = AP plasma pharmacokinetics (enzymatic PNP assay) in healthy and arthritic rats; assay type: in vivo, rat; conditions: for persistence of increased plasma AP levels: 4 hour sampling
Description: An enzymatic assay was used to determine plasma concentrations of alkaline phosphatase prior to and 0-4 hours after administration a dose of 700 U/kg AP to healthy rats and arthritic rats, FIG. 7. At time points 0, 15, 60, 120 and 240 min after AP administration, a blood sample was drawn from the tail vain of the rats and transferred to a lml Eppendorf microtube containing heparin (454081, Greiner bio-one, Charlotte, USA) as anti-coagulant. As a control, blood was drawn at the same time points from arthritic rats that were injected a t=0 with 500 μl PBS. Eppendorf tubes were centrifuged at 3,000×g for 5 min at 4° C., after which the plasma was collected and stored at −80° C. until use.
The enzymatic assay for AP is based on the conversion of the substrate paranitrophenol-phosphate (PNP; 104105, Sigma-Aldrich, Zwijdrecht, the Netherlands) to paranitrophenol which is measured spectrophotometrically at 405 nm at 25° C. To a 3 ml reaction cuvette was added 2.9 ml substrate solution (containing final concentrations of 25 mM glycine, 10 mM MgCl2, 3 mM PNP, adjusted to pH 9.6 with NaOH). The reaction was started by adding 30 μl of plasma sample, 1:1 diluted in enzyme diluent buffer (25 mM glycine, 1 mM MgCl2, 0.1 mM ZnCl2, 10% (v/v) glycerol, adjusted to pH 9.6 with NaOH). In parallel a reference cuvette was assayed without substrate. The reaction was followed on line for 5 min at 25° C. with continuous monitoring increase of absorbance at 405 nm using a (10037-434, VWR, Radnor, Pa.<USA) spectrophotometer. From the linear phase of A405 increments, AP activity in plasma samples (in U/L) was calculated from a standard curve with serial dilutions of a human recombinant placenta AP stock solution. One Unit of activity is defined as the amount of enzyme decomposing 1 μmol of PNP/min at 25° C.

[4] = 2× AP administration followed by 4× PBS, p<0.01
[5] = prophylactic AP treatment, 2× AP before intra-articular antigen injection
[6] = prophylactic: 2× AP (700 U/kg) prior to intra-articular mBSA injection, p<0.01
[7] = 4x AP, 60 min post tracer injection
[8] = arthritic rats, 60 min after tracer

B1: AP: human recombinant placenta alkaline phosphatase (hRESCAP; TNO, Zeist), an ectophosphatase (protein, UniProt P05187 23-506, looked up)
Alkaline phosphatase, …: IIPVEEENPDFWNREAAEALGAAKKLQPAQTAAKNLIIFLGDGMGVSTVTAARILKGQKKDKLGPEIPLAMDRFPYVALSKTYNVDKHVPDSGATATAYLCGVKGNFQTIGLSAAARFNQCNTTRGNEVISVMNRAKKAGKSVGVVTTTRVQHASPAGTYAHTVNRNWYSDADVPASARQEGCQDIATQLISNMDIDVILGGGRKYMFRMGTPDPEYPDDYSQGGTRLDGKNLVQEWLAKRQGARYVWNRTELMQASLDPSVTHLMGLFEPGDMKYEIHRDSTLDPSLMEMTEAALRLLSRNPRGFFLFVEGGRIDHGHHESRAYRALTETIMFDDAIERAGQLTSEEDTLSLVTADHSHVFSFGGYPLRGSSIFGLAPGKARDRKAYTVLLYGNGPGYVLKDGARPDVTESESGSPEYRQQSAVPLDEETHAGEDVAVFARGPQAHLVHGVQEQTFIAHVMAFAACLEPYTACDLAPPAGTTD
- reduction of synovial ED1+ macrophage infiltration in arthritic knees [1, 4]: 2 fold
- reduction of synovial ED2+ macrophage infiltration in arthritic knees [1, 4]: 3 fold
- ED1+ synovial macrophage infiltration in arthritic knee (in words) [1, 5]: mild infiltration; also recorded: very much reduced; also recorded: markedly reduced infiltration
- ED2+ synovial macrophages in arthritic knee (in words) [1, 5]: do not show this activity; also recorded: markedly reduced infiltration
- lower quantification of ED1+ macrophages in arthritic knees compared to untreated rats (1× i.a.) [1, 6]: 4 fold
- lower quantification of ED2+ macrophages in arthritic knees compared to untreated rats (1× i.a.) [1, 6]: 8 fold
- further reduction of ED1+ and ED2+ macrophage counts in arthritic knees ([1]; therapeutic setting, 4× AP administration): ~8 fold
- ED2+ synovial macrophages in arthritic knee (in words) ([1]; therapeutic treatment, 4× AP after first i.a. and in between boosts): much reduced
- ED1+ synovial macrophage infiltration in arthritic knee (in words) ([1]; therapeutic treatment, 4× after first i.a. and in between boosts, AP 700 U/kg, MTX 1 mg/kg): reduces ED1+ infiltration; also recorded: very much reduced
- half life time [2]: ≈ 3 days
- swelling of the mBSA-injected right knee (arthritic rats; prophylactic and therapeutic AP treatment or MTX treatment, versus positive control): Reduced swelling
- swelling of the non-treated left knee (arthritic rats; versus positive control treatment): swelling is reduced
- [^18F]fluoro-PEG-folate uptake, Heart, Avg (macrophages; [7]): 0.117 % ID/g
- [^18F]fluoro-PEG-folate uptake, Liver, Avg (macrophages; [7]): 0.151 % ID/g
- [^18F]fluoro-PEG-folate uptake, Lung, Avg (macrophages; [7]): 0.111 % ID/g
- [^18F]fluoro-PEG-folate uptake, Spleen, Avg (macrophages; [7]): 0.779 % ID/g
- [^18F]fluoro-PEG-folate uptake in kidney and intestine (in words) (macrophages; [8]): not impacted
- [^18F]fluoro-PEG-folate uptake in lung, heart, liver and spleen (in words) (macrophages; [8]): reductions
- maximum increase of plasma AP levels over baseline ([3]; arthritic rats, 700 U/kg i.p.): 1.7 fold
- time for plasma AP levels to drop to basal levels ([3]; arthritic rats, 700 U/kg i.p.): steadily returned to baseline levels
- time for plasma AP levels to drop to basal levels ([3]; arthritic rats, 700 U/kg i.p., listed as hRESCAP): ≤ 4 h
- time to maximum (peak) plasma AP level ([3]; healthy and arthritic rats, 700 U/kg i.p.): 1 h
- peak plasma levels above baseline ([3]; healthy and arthritic rats, single i.p. dose of 700 U/kg): 50-70%
- maximum increase of plasma AP levels over baseline ([3]; healthy rats, 700 U/kg i.p.): 1.5 fold
- persistence of increased plasma AP levels ([3]; healthy rats, 700 U/kg i.p.): retained for up to 4 hours
- persistence of increased plasma AP levels ([3]; healthy rats, 700 U/kg i.p., listed as hRESCAP): remained stably higher above control level in plasma over 4 hours
